Experimental data published in IntAct's records for PubMed 31515488.

B1: Four and a half LIM domains protein 5 (Homo sapiens), Q5TD97 (parent)
chain: MTTAHFYCQYCTASLLGKKYVLKDDSPYCVTCYDRVFSNYCEECKKPIESDSKDLCYKDRHWHEGCFKCTKCNHSLVEKPFAAKDERLLCTECYSNECSSKCFHCKRTIMPGSRKMEFKGNYWHETCFVCENCRQPIGTKPLISKESGNYCVPCFEKEFAHYCNFCKKVITSGGITFCDQLWHKECFLCSGCRKDLCEEQFMSRDDYPFCVDCYNHLYANKCVACSKPISGLTGAKFICFQDSQWHSECFNCGKCSVSLVGKGFLTQNKEIFCQKCGSGMDTDI
partner: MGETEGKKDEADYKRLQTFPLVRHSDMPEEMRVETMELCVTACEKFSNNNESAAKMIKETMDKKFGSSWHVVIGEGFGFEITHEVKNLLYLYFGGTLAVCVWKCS
B2: E3 ubiquitin-protein ligase DZIP3 (Homo sapiens), Q86Y13 (parent)
chain: MDSLPDEFFVRHPAVEDQRKEETENKLEKSSGQLNKQENDIPTDLVPVNLLLEVKKLLNAINTLPKGVVPHIKKFLQEDFSFQTMQREVAANSQNGEEIVPALTLRFLITQLEAALRNIQAGNYTAHQINIGYYLTLLFLYGVALTERGKKEDYTEAENKFLVMKMMIQENEICENFMSLVYFGRGLLRCAQKRYNGGLLEFHKSLQEIGDKNDHWFDIDPTEDEDLPTTFKDLLNNFIKTTESNIMKQTICSYLDCERSCEADILKNTSYKGFFQLMCSKSCCVYFHKICWKKFKNLKYPGENDQSFSGKKCLKEGCTGDMVRMLQCDVPGIVKILFEVVRKDEYITIENLGASYRKLISLKITDTDIRPKISLKFNTKDEMPIFKLDYNYFYHLLHIIIISGTDIVRQIFDEAMPPPLLKKELLIHKNVLESYYNHLWTNHPLGGSWHLLYPPNKELPQSKQFDLCLLLALIKHLNVFPAPKKGWNMEPPSSDISKSADILRLCKYRDILLSEILMNGLTESQFNSIWKKVSDILLRLGMMQEDIDKVKENPIENISLDYHQLSVYLGIPVPEIIQRMLSCYQQGIALQSITGSQRIEIEELQNEEEELSPPLMEYNINVKSHPEIQFAEINKDGTSIPSESSTESLKDLQEVKSKQRKKKKTKNKKNKDSKEDQVPYVVEKEEQLRKEQANPHSVSRLIKDDASDVQEDSAMEDKFYSLDELHILDMIEQGSAGKVTTDYGETEKERLARQRQLYKLHYQCEDFKRQLRTVTFRWQENQMQIKKKDKIIASLNQQVAFGINKVSKLQRQIHAKDNEIKNLKEQLSMKRSQWEMEKHNLESTMKTYVSKLNAETSRALTAEVYFLQCRRDFGLLHLEQTEKECLNQLARVTHMAASNLESLQLKAAVDSWNAIVADVRNKIAFLRTQYNEQINKVKQGFALSTLPPVQLPPPPPSPEILMQQFLGRPLVKESFFRPILTVPQMPAVCPGVVSATGQPRAPLMTGIAWALPAPVGDAVPPSAGLRSDPSIMNWERITDRLKTAFPQQTRKELTDFLRKLKDAYGKSLSELTFDEIVCKISQFIDPKKSQSQGKSVSNVNCVSPSHSPSQPDAAQPPKPAWRPLTSQGPATWEGASNPDEEEEEEEPCVICHENLSPENLSVLPCAHKFHAQCIRPWLMQQGTCPTCRLHVLLPEEFPGHPSRQLPKI
B3: Transmembrane protein 79 (Homo sapiens), Q9BSE2 (parent)
chain: MTEQETLALLEVKRSDSPEKSSPQALVPNGRQPEGEGGAESPGAESLRVGSSAGSPTAIEGAEDGLDSTVSEAATLPWGTGPQPSAPFPDPPGWRDIEPEPPESEPLTKLEELPEDDANLLPEKAARAFVPIDLQCIERQPQEDLIVRCEAGEGECRTFMPPRVTHPDPTERKWAEAVVRPPGCSCGGCGSCGDREWLRAVASVGAALILFPCLLYGAYAFLPFDVPRLPTMSSRLIYTLRCGVFATFPIVLGILVYGLSLLCFSALRPFGEPRREVEIHRRYVAQSVQLFILYFFNLAVLSTYLPQDTLKLLPLLTGLFAVSRLIYWLTFAVGRSFRGFGYGLTFLPLLSMLMWNLYYMFVVEPERMLTATESRLDYPDHARSASDYRPRPWG
partner: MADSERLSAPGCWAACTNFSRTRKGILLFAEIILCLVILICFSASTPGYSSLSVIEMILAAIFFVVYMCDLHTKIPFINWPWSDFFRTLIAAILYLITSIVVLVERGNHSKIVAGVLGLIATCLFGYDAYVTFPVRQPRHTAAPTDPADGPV
B4: Protein FAM9B (Homo sapiens), Q8IZU0 (parent)
chain: MAAWGKKHAGKDPVRDECEERNRFTETREEDVTDEHGEREPFAETDEHTGANTKKPEDTAEDLTAKRKRMKMDKTCSKTKNKSKHALRKKQLKRQKRDYIHSLKLLNVLEEYITDEQKEEEEEEGEEEELIRIFQEQQKKWQQYRSVRRERLKEMKLLRDQFVKALEDFEDLCDRVFSDEDSELDN
partner: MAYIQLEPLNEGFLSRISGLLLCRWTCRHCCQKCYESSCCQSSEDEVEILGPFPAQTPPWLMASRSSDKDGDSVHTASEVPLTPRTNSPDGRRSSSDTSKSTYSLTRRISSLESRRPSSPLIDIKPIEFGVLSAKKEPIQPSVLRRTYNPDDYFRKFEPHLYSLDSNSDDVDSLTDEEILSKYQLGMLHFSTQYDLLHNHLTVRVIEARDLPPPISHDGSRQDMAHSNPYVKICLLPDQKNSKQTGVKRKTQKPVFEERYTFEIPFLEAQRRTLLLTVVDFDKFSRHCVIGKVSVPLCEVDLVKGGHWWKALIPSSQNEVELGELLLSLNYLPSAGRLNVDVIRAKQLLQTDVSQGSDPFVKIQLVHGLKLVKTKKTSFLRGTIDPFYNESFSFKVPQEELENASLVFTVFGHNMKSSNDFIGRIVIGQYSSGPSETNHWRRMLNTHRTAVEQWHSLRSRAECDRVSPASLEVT
B5: Zinc finger protein Aiolos (Homo sapiens), Q9UKT9 (parent)
chain: MEDIQTNAELKSTQEQSVPAESAAVLNDYSLTKSHEMENVDSGEGPANEDEDIGDDSMKVKDEYSERDENVLKSEPMGNAEEPEIPYSYSREYNEYENIKLERHVVSFDSSRPTSGKMNCDVCGLSCISFNVLMVHKRSHTGERPFQCNQCGASFTQKGNLLRHIKLHTGEKPFKCHLCNYACQRRDALTGHLRTHSVEKPYKCEFCGRSYKQRSSLEEHKERCRTFLQSTDPGDTASAEARHIKAEMGSERALVLDRLASNVAKRKSSMPQKFIGEKRHCFDVNYNSSYMYEKESELIQTRMMDQAINNAISYLGAEALRPLVQTPPAPTSEMVPVISSMYPIALTRAEMSNGAPQELEKKSIHLPEKSVPSERGLSPNNSGHDSTDTDSNHEERQNHIYQQNHMVLSRARNGMPLLKEVPRSYELLKPPPICPRDSVKVINKEGEVMDVYRCDHCRVLFLDYVMFTIHMGCHGFRDPFECNMCGYRSHDRYEFSSHIARGEHRALLK
partner: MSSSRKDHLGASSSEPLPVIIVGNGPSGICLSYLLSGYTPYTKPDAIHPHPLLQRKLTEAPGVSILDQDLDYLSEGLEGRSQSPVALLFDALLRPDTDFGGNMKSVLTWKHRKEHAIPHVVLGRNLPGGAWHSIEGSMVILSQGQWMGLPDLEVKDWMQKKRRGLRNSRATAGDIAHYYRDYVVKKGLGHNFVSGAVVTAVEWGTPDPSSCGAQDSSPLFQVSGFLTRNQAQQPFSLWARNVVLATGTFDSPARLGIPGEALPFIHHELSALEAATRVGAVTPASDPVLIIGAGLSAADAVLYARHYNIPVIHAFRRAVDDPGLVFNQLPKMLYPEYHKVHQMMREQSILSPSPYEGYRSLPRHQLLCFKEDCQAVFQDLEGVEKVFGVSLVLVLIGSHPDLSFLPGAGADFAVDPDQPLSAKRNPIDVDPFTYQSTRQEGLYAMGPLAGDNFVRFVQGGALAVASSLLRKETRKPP
B6: Calcium-binding and coiled-coil domain-containing protein 2 (Homo sapiens), Q13137 (parent)
chain: MEETIKDPPTSAVLLDHCHFSQVIFNSVEKFYIPGGDVTCHYTFTQHFIPRRKDWIGIFRVGWKTTREYYTFMWVTLPIDLNNKSAKQQEVQFKAYYLPKDDEYYQFCYVDEDGVVRGASIPFQFRPENEEDILVVTTQGEVEEIEQHNKELCKENQELKDSCISLQKQNSDMQAELQKKQEELETLQSINKKLELKVKEQKDYWETELLQLKEQNQKMSSENEKMGIRVDQLQAQLSTQEKEMEKLVQGDQDKTEQLEQLKKENDHLFLSLTEQRKDQKKLEQTVEQMKQNETTAMKKQQELMDENFDLSKRLSENEIICNALQRQKERLEGENDLLKRENSRLLSYMGLDFNSLPYQVPTSDEGGARQNPGLAYGNPYSGIQESSSPSPLSIKKCPICKADDICDHTLEQQQMQPLCFNCPICDKIFPATEKQIFEDHVFCHSL
partner: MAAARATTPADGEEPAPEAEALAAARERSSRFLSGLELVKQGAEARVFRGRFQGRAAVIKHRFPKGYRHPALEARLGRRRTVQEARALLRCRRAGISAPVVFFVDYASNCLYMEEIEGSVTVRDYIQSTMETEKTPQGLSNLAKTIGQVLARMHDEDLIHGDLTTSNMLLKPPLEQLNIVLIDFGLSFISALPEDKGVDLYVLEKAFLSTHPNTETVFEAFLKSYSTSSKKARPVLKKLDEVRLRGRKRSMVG

Variants of: B1
Conditions: with dnal4_human DNAL4, O96015

| Variant | effect of a mutation on the interaction |
| --- | --- |
| D24Y | with no effect |
| R204G | with no effect |
| M202L | with no effect |

Variants of: B2
Conditions: with ub2e2_human UBE2E2, Q96LR5
ub2e2_human UBE2E2, Q96LR5, sequence (Q96LR5 whole entry): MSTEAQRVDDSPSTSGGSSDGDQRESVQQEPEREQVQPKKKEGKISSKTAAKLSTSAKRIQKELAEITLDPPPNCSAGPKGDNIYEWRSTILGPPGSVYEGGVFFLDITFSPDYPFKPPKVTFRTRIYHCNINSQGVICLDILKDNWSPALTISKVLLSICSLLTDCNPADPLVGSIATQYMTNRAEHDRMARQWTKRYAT

| Variant | effect of a mutation on the interaction |
| --- | --- |
| F767L | with no effect |

Variants of: B2
Conditions: with zch10_human ZCCHC10, Q8TBK6
zch10_human ZCCHC10, Q8TBK6, sequence (Q8TBK6 whole entry): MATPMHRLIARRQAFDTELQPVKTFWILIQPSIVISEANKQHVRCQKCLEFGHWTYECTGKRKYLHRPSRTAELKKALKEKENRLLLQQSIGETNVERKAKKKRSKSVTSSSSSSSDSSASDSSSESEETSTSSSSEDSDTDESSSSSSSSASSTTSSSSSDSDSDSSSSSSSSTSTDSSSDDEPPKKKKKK

| Variant | effect of a mutation on the interaction |
| --- | --- |
| F767L | with no effect |

Variants of: B3
Conditions: with plp2_human PLP2, Q04941

| Variant | effect of a mutation on the interaction |
| --- | --- |
| D144G | with no effect |
| V147M | with no effect |
| S104T | with no effect |

Variants of: B4
Conditions: with syt17_human SYT17, Q9BSW7

| Variant | effect of a mutation on the interaction |
| --- | --- |
| R23H | with no effect |

Variants of: B5
Conditions: with osgi1_human OSGIN1, Q9UJX0

| Variant | effect of a mutation on the interaction |
| --- | --- |
| N119D | with no effect |
| A24V | with no effect |

Variants of: B6
Conditions: with prpk_human TP53RK

| Variant | effect of a mutation on the interaction |
| --- | --- |
| V248A | with no effect |
